Results as given in the supplement of paper PMC10567573.

B1: TFE3 (parent)
chain: FHLGLEDILMEEEEGVVGGLSGGA
B2: ADD1 (parent)
chain: FASDGDSGTCSPLRHSFQKQQREK

Variants of: B1
Experiment: protein stability index of a GFP-peptide fusion (GPS, HEK-293T) (PSI 1-6); higher = more stable
Settings: c terminus: a fixed tail appended
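Further: lentivirally expressed fusions sorted by FACS into six bins by GFP to DsRed ratio, PSI derived from sequencing read proportions per bin multiplied by bin number.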

Protein stability index, by site and new letter:
E12: K 3.2; T 3.72; P 2.43; S 3.29; V 1.74; Y 2.63; W 1.76; I 2.51; Q 3.47; M 2.29; R 2.47; C 2.83; D 3.77; F 2.14; H 3.09; N 3.01; G 3.02; A 2.6
E11: C 2.6; Y 2.38; P 2.7; F 2.09; L 2.2; K 3.35; M 1.82; V 2.67; G 2.61; Q 2.91; S 2.95; W 2.57; A 3.08; R 3.33; N 3.11; H 2.73; I 2.08; T 2.97; D 3.66
L5: N 3.85; W 4.21; A 4.62; V 4.53; Q 4.46; T 4.23; D 4.38; H 3.91; K 3.76; R 4.04; S 4.37; F 3.16; M 3.46; P 3.59; C 4.36; I 3.7; E 4.96; Y 3.21; G 4.52
E6: Y 2.31; L 3.26; R 3.3; M 1.93; G 2.58; V 2.34; S 2.82; W 2.02; N 2.73; H 2.86; K 2.68; F 2.33; Q 3.31; D 3.58; I 1.88; A 2.67; P 3.02; T 3.04; C 2.55
D7: R 2.16; Y 1.57; Q 3.19; E 3.56; T 3; L 2.16; S 3.31; C 2.34; N 3.04; A 2.34; V 2.89; M 1.65; K 2.77; I 2.25; H 2.88; P 3.5; G 3.54; F 2.28
H2: M 4.29; L 3.46; F 3.15; Y 3.56; I 2.52; R 4.16; G 4.41; T 4.23; K 4.38; D 4.81; Q 4.44; S 4.27; W 2.94; A 4.12; P 4.26; C 3.96; V 2.75; N 4.84; E 3.95
G4: D 3.99; W 2.67; P 3.05; Y 1.86; S 3.94; C 2.67; K 2.23; E 4.89; I 2.1; F 2.01; V 2.13; M 2.5; T 3.08; R 2.5; N 3.48; L 2.46; H 2.94; A 2.97; Q 3.54
L3: Y 3.56; Q 4.22; C 2.34; G 3.44; K 4.49; H 4.32; T 4.5; P 4.44; A 4.52; V 4.14; I 4.07; S 3.5; M 3.92; W 2.45; D 5.27; E 5.06; R 4.14; F 3.92; N 4.17
F1: A 5.2; E 4.53; P 4.88; T 4.02; D 5.21; V 4.56; H 5.11; K 5.06; L 4.36; R 4.44; Y 4.24; I 4.57; M 4.85; G 4.95; S 4.96; Q 5.15; N 5.56; C 4.89; W 4.09
E14: A 3.17; N 2.72; D 3.82; I 2.22; F 1.78; P 3.53; L 2.67; M 2.27; Q 2.98; K 3.34; G 2.94; H 2.54; R 3.55; C 2.73
I8: W 3.24; A 4.33; R 3.93; S 4.28; E 4.72; G 4.2; D 4.59; H 4.01; N 4.25; P 4.89; C 4.03; Y 3.99; F 3.17; Q 4.28; K 4.31; M 3.58; V 4.08; L 3.78; T 3.88
E13: K 3.41; P 2.41; Q 3.4; W 2.18; H 3.19; Y 2.11; G 2.58; N 3.55; D 3.3; I 1.88; L 2.37; R 3.1; A 2.83; M 2.15; T 3.34; F 1.84; S 3.34; V 2.46; C 2.16
M10: G 4.02; H 3.58; P 4.18; L 3.44; V 3.83; I 3.81; W 3.57; E 4.27; Q 4.34; R 3.23; C 3.83; N 3.23; T 3.88; K 3.94; Y 3.62; A 4; F 3.83; S 4.08; D 4.13
L9: S 3.69; T 4.37; V 4.11; C 4.06; W 2.66; G 4.43; D 4; I 3.7; A 4.22; M 4.1; F 3.29; H 4.08; N 4.33; P 4.21; Y 3.87; Q 4.39; R 4.5; K 4.17; E 4.57

Variants of: B2
Experiment: as above
Settings: c terminus: a fixed tail appended

Protein stability index: each site, then its substitutions
R22: V 3.35; E 4.23; C 3.57; L 3.27; I 3.68; W 3.28; D 4.51; H 3.84; M 3.77; A 3.68; F 3.63; N 3.42; Y 4.09; S 4.21; T 3.48; G 4.24; K 4.57; P 3.57; Q 3.84
K24: V 3.13; L 3.15; A 2.92; Q 3.82; F 2.96; N 3.57; H 3.25; R 3.14; P 3.42; I 3.17; E 4.01; C 3.41; M 2.46; G 3.41; S 3.4; Y 2.83; T 3.88; W 3.08; D 3.83
E23: C 3.37; D 3.11; V 3.58; F 2.74; Q 4.04; I 2.76; G 3.21; L 3.57; K 4.34; H 3.66; W 2.94; S 3.66; P 3.29; Y 3.25; N 3.6; T 3.67; R 3.79; A 3.7
Q21: P 3.67; Y 3.17; H 3.4; T 3.99; R 3.75; D 2.81; W 3.49; L 3.26; N 4.04; V 3.06; A 3.85; M 3.48; S 3.64; F 3.89; C 3.57; G 3.94; K 3.75; I 3.42; E 3.84
